From article PMC5660149, “Oligomerization and ATP stimulate condensin-mediated DNA compaction” (Scientific Reports, 2017)

Molecular target: budding yeast condensin holoenzyme (heteropentamer of Smc2, Smc4, Brn1, Ycg1 and Ycs4) (budding yeast) (UniProt P38989)
Assay: SEC; Superose 6 10/300 gel filtration as the last step of purification after nickel-NTA and StrepTactin; self-association of the heteropentamer (monomer) into a multimer

With “budding yeast condensin holoenzyme (heteropentamer of Smc2, Smc4, Brn1, Ycg1 and Ycs4), P38989 1-1170; Q12267 1-1418; P38170 1-754; Q06680 1-1035; Q06156 1-1176” the percent multimeric in the Streptactin-purified fraction was 30%.
